Here are results for twelve molecules from patent US20190359687A1 (Bayer, published 2019).

Test [1] concerns the target T1, purified human glycophorin A protein (Sigma, cat # G5017) (human, UniProt P02724 20-150).
T1 construct: mature; also called Sigma hGPA; Sigma GPA
T1 sequence (looked up): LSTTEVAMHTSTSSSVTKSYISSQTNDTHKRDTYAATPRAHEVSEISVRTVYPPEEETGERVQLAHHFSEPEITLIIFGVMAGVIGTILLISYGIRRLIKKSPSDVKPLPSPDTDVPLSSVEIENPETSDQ
Nature of the test: ELISA, native hGPA. (In an ELISA, binding on a coated surface is turned into a signal by an enzyme label.)

Test [2] concerns the target T2, human glycophorin A in the red blood cell membrane (human, UniProt P02724 20-150).
T2 construct: whole, on cells; used for intact RBC, isolated RBC membranes and transfected cells; the assay field tells which; also called GPA; hGPA
T2 sequence (looked up): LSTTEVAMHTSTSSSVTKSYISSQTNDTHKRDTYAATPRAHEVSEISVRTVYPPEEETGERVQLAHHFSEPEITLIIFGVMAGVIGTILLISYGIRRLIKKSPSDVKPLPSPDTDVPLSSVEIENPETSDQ
Nature of the test: ELISA, human RBC membranes.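 Also: antibodies bound to isolated human red blood cell membrane ghosts coated on 96-well plates, tested 1.5 h at room temperature, bound antibody quantified with a detection antibody.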
Protocol: In order to evaluate binding of antibodies to GPA in the native context of the red blood cell membrane we made use of isolated red blood cell membranes, also called red blood cells ghosts. These membranes are prepared by first isolating red blood cells from citrated whole blood. Citrated whole blood is layered on to Ficol and centrifuged at low speed for 20 minutes to pellet the red blood cells. The supernatant containing plasma and other blood cells is discarded and the red blood cell pellet is subsequently washed 3 times in 10 cell volumes of phosphate buffered saline (PBS). A 10 ml pellet of purified red blood cells is resuspended in 30 ml of cold low osmorality 20 mM phosphate buffer (pH7.4) and incubated for 30 mins to break open the RBC. After Centrifugation at 10,000 rpm for 30 min at 5° C. the hemoglobin containing supernatant is discarded. To the membrane pellet another 30 ml of 20 mM phosphate buffer is added and the sample centrifuged again at 10,000 rpm for 30 min at 5° C. to pellet the membrane fraction. This wash and centrifugation step is repeated another 4 times. The red blood cell membranes are then resuspended in 20 mL of PBS to achieve an equivalent of approximately 2.5E9 cells/mL and stored frozen at −20° C. Binding of antibodies to RBC ghost can be measured by ELISA in which the RBC ghost suspension (5×10⁶ in 100 ul PBS) was added to each well of flat bottom 96-well ELISA microtiter plates (2HB, Immunolon) and the plates incubated overnight at 4° C. The plates were blocked with Starting blocking buffer (Thermo Fisher) for 2 hours at room temperature (RT). Antibodies or other test molecules were added to each well and incubated for 1.5 hours at RT. After 4 washes 100 ul of an appropriate detection antibody was added to each well and incubated for 1 hour at RT. After 4 washes the detection antibody was measured using appropriate detection reagents.

The target of test [3] is T3, recombinant human GPA ectodomain (human, UniProt P02724 20-91).
T3 construct: also called recombinant hGPA ECD; recGPA
T3 sequence: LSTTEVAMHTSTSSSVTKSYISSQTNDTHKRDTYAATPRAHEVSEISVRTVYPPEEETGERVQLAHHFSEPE
The test can be described thus: ELISA, rec hGPA ectodomain.

The target in test [4] is T4, native human glycophorin A protein (human, UniProt P02724 20-150).
T4 construct: mature; also called Hu-nat GPA
T4 sequence (looked up): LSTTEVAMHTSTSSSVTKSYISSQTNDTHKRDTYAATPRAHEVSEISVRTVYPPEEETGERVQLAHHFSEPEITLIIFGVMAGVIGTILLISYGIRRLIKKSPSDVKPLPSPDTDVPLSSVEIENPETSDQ
The test can be described thus: ELISA, Fab on coated native human GPA.

Test [5] has as its target T5, human glycophorin A on human red blood cells or red blood cell membranes (human, UniProt P02724 20-150).
T5 construct: whole, on cells; also called hRBC; human RBC membranes
T5 sequence (looked up): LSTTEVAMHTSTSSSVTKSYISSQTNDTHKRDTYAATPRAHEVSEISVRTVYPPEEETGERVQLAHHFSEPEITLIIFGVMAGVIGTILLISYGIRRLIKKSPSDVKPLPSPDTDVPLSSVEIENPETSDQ
The test can be described thus: ELISA, Fab on coated human RBC membranes.
Protocol: These membranes are prepared by first isolating red blood cells from citrated whole blood. Citrated whole blood is layered on to Ficol and centrifuged at low speed for 20 minutes to pellet the red blood cells. The supernatant containing plasma and other blood cells is discarded and the red blood cell pellet is subsequently washed 3 times in 10 cell volumes of phosphate buffered saline (PBS). A 10 ml pellet of purified red blood cells is resuspended in 30 ml of cold low osmorality 20 mM phosphate buffer (pH7.4) and incubated for 30 mins to break open the RBC. After Centrifugation at 10,000 rpm for 30 min at 5° C. the hemoglobin containing supernatant is discarded. To the membrane pellet another 30 ml of 20 mM phosphate buffer is added and the sample centrifuged again at 10,000 rpm for 30 min at 5° C. to pellet the membrane fraction. This wash and centrifugation step is repeated another 4 times. The red blood cell membranes are then resuspended in 20 mL of PBS to achieve an equivalent of approximately 2.5E9 cells/mL and stored frozen at −20° C. Binding of antibodies to RBC ghost can be measured by ELISA in which the RBC ghost suspension (5×10⁶ in 100 ul PBS) was added to each well of flat bottom 96-well ELISA microtiter plates (2HB, Immunolon) and the plates incubated overnight at 4° C. The plates were blocked with Starting blocking buffer (Thermo Fisher) for 2 hours at room temperature (RT). Antibodies or other test molecules were added to each well and incubated for 1.5 hours at RT. After 4 washes 100 ul of an appropriate detection antibody was added to each well and incubated for 1 hour at RT. After 4 washes the detection antibody was measured using appropriate detection reagents.

The target in test [6] is T6, recombinant human glycophorin A ectodomain protein (human, UniProt P02724 20-91).
T6 construct: 72 amino acids of the extracellular region; also called Hu-rec GPA
T6 sequence: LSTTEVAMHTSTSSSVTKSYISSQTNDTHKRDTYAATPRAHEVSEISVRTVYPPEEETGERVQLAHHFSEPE
Nature of the test: ELISA, Fab on coated recombinant human GPA ectodomain.

Test [7] concerns the target T5, human glycophorin A on human red blood …. Nature of the test: SPR (Biacore), Fab on human RBC membranes.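 Also: human RBC membranes captured on an L1 sensor chip, Fab fragments passed over as analyte, binding kinetics read by surface plasmon resonance.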
Protocol: Kinetic analysis of the antibody binding to human red blood cell membranes was also performed using surface plasmon resonance (SPR) using a Biacore instrument. In this assay membranes prepared from human red blood cells were attached to a L1 sensor matrix and antibodies were flowed over the RBC membranes.
The binding kinetics of the affinity matured Fab antibodies was also measured.
Test [8] addresses T7, Cynomolgus monkey recombinant glycophorin A ectodomain (Cynomolgus monkey).
T7 construct: extracellular domain
Nature of the test: ELISA, Fab on coated recombinant cyno GPA ectodomain.

B1: TPP-5355 (Fab, V domains shown)
VH: EVQLVQSGAEVKKPGASVKVSCKASGYTFTTYTIHWVRQAPGQGLEWIGYINPSSDYTRYNPKFKDRVTLTTDKSTSTAYMELRSLRSDDTAVYYCQTGTRDYWGQGTTVTVSS
VL: DIQLTQSPSFLSASVGDRVTITCSAASSVSYIYWFQQKPGKAPKLLIYSTSTLPSGVPSRFSGSGSGTEYTLTISSLQPEDFATYYCHQRNSFPYTFGQGTKLEIKR
notes: also called VL: (F95Y)
Regarding B1, the “binding by ELISA relative to parental” value was found to be 1.16 in test [1], 1.18 in test [2] and 1.35 in test [3].

B2: TPP-5357 (Fab, V domains shown)
VH: EVQLVQSGAEVKKPGASVKVSCKASGYTFTTYTIHWVRQAPGQGLEWIGYINPSSDYTRYNPKFKDRVTLTTDKSTSTAYMELRSLRSDDTAVYYCQTGTRDYWGQGTTVTVSS
VL: DIQLTQSPSFLSASVGDRVTITCRAASSVSSYIYWFQQKPGKAPKLLIYSTSTLPSGVPSRFSGSGSGTEYTLTISSLQPEDFATYYCHQRNSFPFTFGQGTKLEIKR
notes: also called VL: (S24R)#
Turning to B2, the figures for the “binding by ELISA relative to parental” value in test [1], in test [2] and in test [3] were 0.23, 0.37 and 0.23, respectively.

B3: TPP-5338, Hu6C12-24 Fab variant VH: (E1Q, I48M, L70M, T72R, K74T, R84S, D89E) (Fab, V domains shown)
VH: QVQLVQSGAEVKKPGASVKVSCKASGYTFTTYTIHWVRQAPGQGLEWMGYINPSSDYTRYNPKFKDRVTMTRDTSTSTAYMELSSLRSEDTAVYYCQTGTRDYWGQGTTVTVSS
VL: DIQLTQSPSFLSASVGDRVTITCSAASSVSYIYWFQQKPGKAPKLLIYSTSTLPSGVPSRFSGSGSGTEYTLTISSLQPEDFATYYCHQRNSFPFTFGQGTKLEIKR
notes: Built on the parental Fab TPP-4935
On to B3, for which the “binding in ELISA relative to parental Fab” value is 0.5 relative to parental Fab in test [4], 0.5 relative to parental Fab in test [5] and 0.4 relative to parental Fab in test [6].

B4: TPP-7791, affinity matured 6C12 Fab (Fab, V domains shown)
VH: EVQLVQSGAEVKKPGASVKVSCKASGYTFTTYAIHWVRQAPGQGLEWMGYINPSSGYTRYNPKFKHRVTMTRDKSTSTAYMELRSLRSDDTAVYYCWTGTRDYWGQGTTVTVSS
VL: DIQLTQSPSFLSASVGDRVTITCRASSSVRYIYWFQQKPGKAPKLLIYATSTLRSGVPSRFSGSGSGTEYTLTISSLQPEDFATYYCHQRNSFPYTFGQGTKLEIK
notes: Tested as Fab
As for B4, the binding result in test [7] was “binds”.

B5: TPP-5356, Hu6C12-24 Fab variant VL: (F35Y, Y70F) (Fab, V domains shown)
VH: EVQLVQSGAEVKKPGASVKVSCKASGYTFTTYTIHWVRQAPGQGLEWIGYINPSSDYTRYNPKFKDRVTLTTDKSTSTAYMELRSLRSDDTAVYYCQTGTRDYWGQGTTVTVSS
VL: DIQLTQSPSFLSASVGDRVTITCSAASSVSYIYWYQQKPGKAPKLLIYSTSTLPSGVPSRFSGSGSGTEFTLTISSLQPEDFATYYCHQRNSFPFTFGQGTKLEIKR
notes: as for B3
For B5, the “binding in ELISA relative to parental Fab” value in test [4] is 0.7 relative to parental Fab; in test [5], 0.7 relative to parental Fab; in test [6], 0.6 relative to parental Fab.

B6: TPP-5337, Hu6C12-24 Fab variant VH: (Q97A, T98R) (Fab, V domains shown)
VH: EVQLVQSGAEVKKPGASVKVSCKASGYTFTTYTIHWVRQAPGQGLEWIGYINPSSDYTRYNPKFKDRVTLTTDKSTSTAYMELRSLRSDDTAVYYCARGTRDYWGQGTTVTVSS
VL: DIQLTQSPSFLSASVGDRVTITCSAASSVSYIYWFQQKPGKAPKLLIYSTSTLPSGVPSRFSGSGSGTEYTLTISSLQPEDFATYYCHQRNSFPFTFGQGTKLEIKR
notes: as for B3
Turning to B6, the results for the “binding in ELISA relative to parental Fab” value in test [4], in test [5] and in test [6] were 0.1 relative to parental Fab, 0.3 relative to parental Fab and 0.1 relative to parental Fab, respectively.

B7: TPP-5676, Hu6C12-24 Fab variant VH: (I48M, D66G) (Fab, V domains shown)
VH: EVQLVQSGAEVKKPGASVKVSCKASGYTFTTYTIHWVRQAPGQGLEWMGYINPSSDYTRYNPKFKGRVTLTTDKSTSTAYMELRSLRSDDTAVYYCQTGTRDYWGQGTTVTVSS
VL: DIQLTQSPSFLSASVGDRVTITCSAASSVSYIYWFQQKPGKAPKLLIYSTSTLPSGVPSRFSGSGSGTEYTLTISSLQPEDFATYYCHQRNSFPFTFGQGTKLEIKR
notes: as for B3
For the molecule B7, the “binding in ELISA relative to parental Fab” value in test [4] is 1.3 relative to parental Fab; in test [5] it was 0.7 relative to parental Fab; in test [8] it was 1.1 relative to parental Fab; in test [6], 1.5 relative to parental Fab.

B8: TPP-5674, Hu6C12-24 Fab variant VH: (I48M, L70M) (Fab, V domains shown)
VH: EVQLVQSGAEVKKPGASVKVSCKASGYTFTTYTIHWVRQAPGQGLEWMGYINPSSDYTRYNPKFKDRVTMTTDKSTSTAYMELRSLRSDDTAVYYCQTGTRDYWGQGTTVTVSS
VL: DIQLTQSPSFLSASVGDRVTITCSAASSVSYIYWFQQKPGKAPKLLIYSTSTLPSGVPSRFSGSGSGTEYTLTISSLQPEDFATYYCHQRNSFPFTFGQGTKLEIKR
notes: as for B3
Turning to B8, the “binding in ELISA relative to parental Fab” value in test [4] was 1.4 relative to parental Fab; in test [5], 0.7 relative to parental Fab; in test [8], 1.1 relative to parental Fab; in test [6], 1.5 relative to parental Fab.

B9: TPP-5695, Hu6C12-24 Fab variant VH: (L70M, T72R) (Fab, V domains shown)
VH: EVQLVQSGAEVKKPGASVKVSCKASGYTFTTYTIHWVRQAPGQGLEWIGYINPSSDYTRYNPKFKDRVTMTRDKSTSTAYMELRSLRSDDTAVYYCQTGTRDYWGQGTTVTVSS
VL: DIQLTQSPSFLSASVGDRVTITCSAASSVSYIYWFQQKPGKAPKLLIYSTSTLPSGVPSRFSGSGSGTEYTLTISSLQPEDFATYYCHQRNSFPFTFGQGTKLEIKR
notes: as for B3
As for B9, the “binding in ELISA relative to parental Fab” value was 0.9 relative to parental Fab in test [4], 0.9 relative to parental Fab in test [5], 1.1 relative to parental Fab in test [8] and 1 relative to parental Fab in test [6].

B10: TPP-5339, Hu6C12-24 Fab variant VH: (E1Q, I48M, L70M, T72R, K74T, R84S, D89E, Q97A, T98R) (Fab, V domains shown)
VH: QVQLVQSGAEVKKPGASVKVSCKASGYTFTTYTIHWVRQAPGQGLEWMGYINPSSDYTRYNPKFKDRVTMTRDTSTSTAYMELSSLRSEDTAVYYCARGTRDYWGQGTTVTVSS
VL: DIQLTQSPSFLSASVGDRVTITCSAASSVSYIYWFQQKPGKAPKLLIYSTSTLPSGVPSRFSGSGSGTEYTLTISSLQPEDFATYYCHQRNSFPFTFGQGTKLEIKR
notes: as for B3
As to B10, the “binding in ELISA relative to parental Fab” value in test [4] and in test [6] was 0 relative to parental Fab throughout.

B11: TPP-5677, Hu6C12-24 Fab variant VH: (I48M, D66G, L70M) (Fab, V domains shown)
VH: EVQLVQSGAEVKKPGASVKVSCKASGYTFTTYTIHWVRQAPGQGLEWMGYINPSSDYTRYNPKFKGRVTMTTDKSTSTAYMELRSLRSDDTAVYYCQTGTRDYWGQGTTVTVSS
VL: DIQLTQSPSFLSASVGDRVTITCSAASSVSYIYWFQQKPGKAPKLLIYSTSTLPSGVPSRFSGSGSGTEYTLTISSLQPEDFATYYCHQRNSFPFTFGQGTKLEIKR
notes: as for B3
As for B11, the “binding in ELISA relative to parental Fab” value in test [4] was 1.8 relative to parental Fab; in test [5] it was 0.8 relative to parental Fab; in test [8] it was 1.2 relative to parental Fab; in test [6], 1.8 relative to parental Fab.

B12: TPP-5696, Hu6C12-24 Fab variant VH: (D66G, L70M) (Fab, V domains shown)
VH: EVQLVQSGAEVKKPGASVKVSCKASGYTFTTYTIHWVRQAPGQGLEWIGYINPSSDYTRYNPKFKGRVTMTTDKSTSTAYMELRSLRSDDTAVYYCQTGTRDYWGQGTTVTVSS
VL: DIQLTQSPSFLSASVGDRVTITCSAASSVSYIYWFQQKPGKAPKLLIYSTSTLPSGVPSRFSGSGSGTEYTLTISSLQPEDFATYYCHQRNSFPFTFGQGTKLEIKR
notes: as for B3
Turning to B12, the “binding in ELISA relative to parental Fab” value in test [4] is 1.3 relative to parental Fab; in test [5], 1 relative to parental Fab; in test [8], 1.2 relative to parental Fab; in test [6] it was 1.2 relative to parental Fab.
